Consider one molecule from publication PMC5552905, “Mechanisms of peptide sex pheromone regulation of conjugation in Enterococcus faecalis” (MicrobiologyOpen, 2017).

Assay [1] relates to LT DNA (XBS1 and XBS2 operator sites), P Q promoter region. The class given is binding, Enterococcus faecalis (plasmid pCF10). The note with it: LT DNA 8 fmol; PrgX 38-568 nmol L^−1 preincubated 5 min at room temperature with 40 nmol L^−1 peptide (C, I). The source says:
(§1) The LT DNA template containing XBS1 and XBS2 sites (LT DNA, pCF10 sequence from nt 8029 to nt8185 (Hirt et al., 2005)) was PCR amplified from pCF10 using primers as described in. The XBS1 DNA template only has XBS1 site (pCF10 sequence 8029–8131nt) was made by annealing oligos ‐129/‐47‐F (5′[…] 3′) and −129/−47R (5′[…] 3′) to obtain double‐stranded DNA. The XBS2 DNA template only has the XBS2 site (pCF10 sequence from 8109 to 8290; −66 to +114 relative to the prgQ transcription initiation site), and was PCR amplified from pCF10 using primers as described in Caserta et al., 2012. In DNA templates with 5‐bp or 10‐bp insertions, sequence GTACC or […] was inserted between XBS1 and XBS2 sites and at a position of 6‐bp after the XBS1 site. DNA probes were labeled at the 3′‐ends with DIG‐11‐ddUTP using the DIG Gel Shift kit (Roche) by following the manufacturer's instructions. EMSA assays were performed in 20 μl reactions: DIG‐labeled DNA, purified proteins, 1 μg of poly‐[d(A‐T)], 0.1 μg of poly‐L‐lysine, 1 × reaction buffer (20 mmol L^−1 Tris‐HCl, pH 7.9, 0.1 mol L^−1 NaCl, 0.1 mmol L^−1 EDTA, 10% glycerol, 0.01 mol L^−1 MgCl2). The reactions were incubated at room temperature for 15 min and loaded onto 5% polyacrylamide gels in 1 × TBE buffer (Tris, Borate, EDTA, pH 7.9). After electrophoresis at 100 V for 1.5 h, the DNA–protein complexes and DNA probes were electrotransferred onto a nylon membrane (Roche) at 6 V for 2 h using the GENIE electrophoretic blotter (Idea Scientific). DIG‐labeled DNA fragments were visualized by an enzyme immunoassay (DIG Gel Shift Kit, Roche) following the manufacturer's instructions. […] For the experiments reported here the powdered form of the peptides were initially solubilized in pure DMF at 0.5 mg/ml, and then diluted 10‐fold in KPBS for use as a working stock solution, which was diluted into the EMSA reactions to a final peptide concentration of 40 nmol L^−1.
EMSA assays were performed using 8 fmol of digoxigenin‐labeled LT DNA probes with increasing amounts of PrgX protein. PrgX was preincubated for 5‐min at room temperature with 40 nmol L^−1 of C (a) or I (b) before adding LT DNA. PrgX concentrations: lanes 2 and 6: 38 nmol L^−1; lanes 3 and 7: 76 nmol L^−1; lanes 4 and 8: 190 nmol L^−1; lanes 5 and 9: 568 nmol L^−1. (c) Cartoon showing the predicted products formed by binding PrgX to LT DNA.

Assay [2] deals with +5 probe (5 bp inserted between XBS1 and XBS2 sites). The source says:
(§2) The LT DNA template containing XBS1 and XBS2 sites (LT DNA, pCF10 sequence from nt 8029 to nt8185 (Hirt et al., 2005)) was PCR amplified from pCF10 using primers as described in. The XBS1 DNA template only has XBS1 site (pCF10 sequence 8029–8131nt) was made by annealing oligos ‐129/‐47‐F (5′[…] 3′) and −129/−47R (5′[…] 3′) to obtain double‐stranded DNA. The XBS2 DNA template only has the XBS2 site (pCF10 sequence from 8109 to 8290; −66 to +114 relative to the prgQ transcription initiation site), and was PCR amplified from pCF10 using primers as described in Caserta et al., 2012. In DNA templates with 5‐bp or 10‐bp insertions, sequence GTACC or […] was inserted between XBS1 and XBS2 sites and at a position of 6‐bp after the XBS1 site. DNA probes were labeled at the 3′‐ends with DIG‐11‐ddUTP using the DIG Gel Shift kit (Roche) by following the manufacturer's instructions. EMSA assays were performed in 20 μl reactions: DIG‐labeled DNA, purified proteins, 1 μg of poly‐[d(A‐T)], 0.1 μg of poly‐L‐lysine, 1 × reaction buffer (20 mmol L^−1 Tris‐HCl, pH 7.9, 0.1 mol L^−1 NaCl, 0.1 mmol L^−1 EDTA, 10% glycerol, 0.01 mol L^−1 MgCl2). The reactions were incubated at room temperature for 15 min and loaded onto 5% polyacrylamide gels in 1 × TBE buffer (Tris, Borate, EDTA, pH 7.9). […]

Assay [3] concerns +10 probe (10 bp inserted between XBS1 and XBS2 sites). It is filed as binding, Enterococcus faecalis (plasmid pCF10).
Excerpt: as §2

For assay [4], the system named is P Q (prgQ promoter) lacZ reporter. Nature of the assay: β-galactosidase assay of P Q-lacZ reporter (pBK2, pBK2 + 5, pBK2 + 10) in E. faecalis. The class given is cell-based, Enterococcus faecalis. The conditions noted are these: 10 ng/ml of C, 30 min at 37°C, PrgX in trans from pCF10, one experiment representative of three. On the procedure: To construct plasmids pBK2 + 5 and pBK2 + 10, the intergenic region between prgQ and prgX was excised from plasmids pBKAdd5 and pBKAdd10 and was cloned into pBK2 using enzymes XhoI and BamHI. Plasmids pBKAdd5 and pBKAdd10 (have the 5‐bp and 10‐bp sequence inserted between XBS1 and XBS2 sites (Kozlowicz, 2005).
E. faecalis cultures were grown overnight in M9‐YEG broth at 37°C with selective antibiotics. Cultures were then diluted 1:10 in fresh medium and grown for 90 min at 37°C. For induction, a final concentration of 10 ng/ml of C was added and cells were incubated for additional 30 min at 37°C. A modified Miller assay was performed as previously described (Kozlowicz, Bae, & Dunny, 2004).
To examine the effects of looping in vivo, we introduced the +5 and +10 base pair insertions between XBS1 and XBS2 sites on the reporter plasmid pBK2, which has a pheromone‐inducible lacZ reporter gene fused downstream from P Q. This enables transcription from P Q to be monitored by measuring β‐galactosidase activity in cell extracts. We transformed these constructs into either OG1Sp or OG1Sp/pCF10 (to provide PrgX protein in trans) and the resulting strains were assayed for β‐galactosidase production in the presence or absence of C.
Figure 4 Expression of β‐galactosidase from E. faecalis cells containing pBK2, pBK2 + 5, and pBK2 + 10. […]

In assay [5] the test system is LT DNA (containing XBS1 and XBS2 sites). The class given is binding, Enterococcus faecalis (plasmid pCF10).
Excerpt: as §1

For the next assay, the system named is LT DNA (prgQ promoter). It is filed as binding, Enterococcus faecalis (plasmid pCF10).
Excerpt: as §1

Assay [6] deals with B2 m1 DNA probe (XBS2 sequence changed). Nature of the assay: EMSA: PrgX and RNAP binding to B2 m1 probe (mutated XBS2). Details: species or system Enterococcus faecalis (plasmid pCF10). The conditions noted are these: PrgX 18, 54 nmol L^−1; RNAP 200, 240 nmol L^−1; RT, 15 min.
Excerpt: as §2
In general terms: In EMSA bound probe runs differently from free probe, usually more slowly.

The subject of the next assay is P Q (prgQ promoter). The note with it: purified PrgX, no peptide, ref Caserta et al., 2012, cited from earlier work. The source says: The target of PrgX‐peptide‐mediated regulation is the prgQ promoter (P Q), which controls expression of the majority of factors involved in pCF10 conjugation. PrgX binds specifically to two operator sites (XBS1 and XBS2) in the P Q region between prgX and prgQ. Because the lower‐affinity XBS2 site overlaps PQ, occupancy of XBS2 by PrgX could impede RNA polymerase binding to the promoter. Based on genetic and structural data, it was proposed that pairs of PrgX dimers could bind to XBS1 and XBS2, with the intervening DNA forming a loop that is stabilized by protein–protein interactions between t ... || It is interesting to consider transcription regulation in the pCF10 system by PrgX in relation to other well‐studied bacterial transcription factors. Many of the canonical transcription factors such as LacI are present in very low concentrations, and are modulated by low molecular weight ligands (co‐repressors, etc.) that are generally more abundant (Muller‐Hill, 1998). In contrast, wild‐type E. faecalis cells carrying pCF10 contain a large excess of PrgX (~15‐fold ratio of X dimers/XBSs) (Caserta et al., 2012), while the extracellular (and probably intracellular) concentrations of the peptide ...

For assay [7], the system named is XBS1 and XBS2 operator sites. The note with it: apo-PrgX, ref Bae et al., 2002, cited from earlier work.
Excerpt: We determined effects of C and I on PrgX‐DNA binding using in vitro electrophoretic mobility shift assays (EMSAs).

Entries after “also recorded” stand apart in the source; their conditions may differ. Read-outs that look alike come from different tables or passages of the source.

B1: PrgX: master transcription regulator PrgX, a repressor of transcription of the prgQ operon; apo form is a dimer in solution (protein)
chain: MFKIGSVLKQIRQELNYHQIDLYSGIMSKSVYIKVEADSRPISVEELSKFSERLGVNFFEILNRAGMNTKSVNETGKEKLLISKIFTNPDLFDKNFQRIEPKRLTSLQYFSIYLGYISIAHHYNIEVPTFNKTITSDLKHLYDKRTTFFGIDYEIVSNLLNVLPYEEVSSIIKPMYPIVDSFGKDYDLTIQTVLKNALTISIMNRNLKEAQYYINQFEHLKTIKNISINGYYDLEINYLKQIYQFLTDKNIDSYLNAVNIINIFKIIGKEDIHRSLVEELTKISAKEKFTPPKEVTMYYENYVAIENNPIPEIKEQS
modifications: left off: His tag, end not stated, kept
notes: master transcription regulator PrgX, a repressor of transcription of the prgQ operon; apo form is a dimer in solution
Turning to B1, the “effect on PrgX-DNA binding: shifted complexes, amount of band II (supershift)” value in assay [1] is “bound to the LT, producing two‐shifted complexes: band I and band II”. Besides, in assay [2], the “shift of +5 probe (band I / band II)” value was “shifted the probe nearly completely to band I, with no distinct supershifted band II”. The “shift of +10 probe (band I / band II)” value in [3] is on record as “binding profile was similar to LT DNA wild‐type probe”. The “lacZ expression (β-galactosidase), 5 bp insertion construct” value in assay [4] (pBK2 + 5) was “no effect on lacZ activity”. For the same molecule, the “lacZ expression (β-galactosidase), 10 bp insertion construct” value in assay [4] (pBK2 + 10) is recorded as “β‐galactosidase expression was repressed”. Besides, the “fold higher K D of PrgX dimer to XBS1 site” value in assay [5] was “about 10 fold”. Also, the “fold higher K D of PrgX dimers bound to XBS2” value in assay [5] was approximately 1000 fold. In addition, the Kd in assay [5] (EMSA densitometry, two-site binding polynomial, apo-PrgX (dimer) on LT DNA, mean ± SD of three independent EMSA experiments, read-out: K xbs1: K D of binding to XBS1 site) turned out to be 4.04 ± 3.36 nM. In the assay with LT DNA (prgQ promoter), the “effect on LT DNA shifts / RNAP binding” value was “formation of the high‐molecular‐weight RNAP‐DNA species was nearly eliminated; also recorded: hinders RNAP binding to prgQ promoter”. For the same molecule, in [6], the “binding to B2 m1 probe” value is recorded as “produced the band I shift, however, there was a dramatic reduction in band II”. In addition, the “repression of P Q in vitro” value with P Q (prgQ promoter) is “directly represses P Q”; with P Q (prgQ promoter) (listed as apo‐PrgX), “repress prgQ transcription in vitro”. The “relative affinity for XBS1 vs XBS2 / binding to probes lacking XBS1” value in [7] (listed as Apo‐PrgX) was “binds to XBS1 with relatively higher affinity than to XBS2”; in [7] (listed as apo‐PrgX), “reduced binding of apo‐PrgX to DNA probes lacking XBS1 and virtually no supershifted species resembling Band II”.
